In patent US20230391852A1 (US Dept. of Health and Human Services, published 2023):

How the values were obtained:
SARS-CoV-2 S trimer = target: T1, SARS-CoV-2 S trimer (SARS-CoV-2, UniProt P0DTC2 16-1213); test: monoclonal phage ELISA, drawn table of OD450 values
T1 construct: also called SARS-CoV-2 S protein; S homotrimer protein

SARS-CoV-2 S1 = target: T2, SARS-CoV-2 S1; test: as above
T2 construct: also called S1 subunit of the SARS-CoV-2 spike protein

SARS-CoV-2 RBD = SARS-CoV-2 RBD (SARS-CoV-2, UniProt P0DTC2 319-541); test: monoclonal VHH phage clone binding screen (FIG. 3A)
BSA = target: T3, BSA (UniProt P02769 25-607); test: ELISA, 1 µg/ml coated BSA, 1 µg/ml VHH-hFc
T3 construct: also called control protein
T3 sequence (P02769 25-607 limits assumed): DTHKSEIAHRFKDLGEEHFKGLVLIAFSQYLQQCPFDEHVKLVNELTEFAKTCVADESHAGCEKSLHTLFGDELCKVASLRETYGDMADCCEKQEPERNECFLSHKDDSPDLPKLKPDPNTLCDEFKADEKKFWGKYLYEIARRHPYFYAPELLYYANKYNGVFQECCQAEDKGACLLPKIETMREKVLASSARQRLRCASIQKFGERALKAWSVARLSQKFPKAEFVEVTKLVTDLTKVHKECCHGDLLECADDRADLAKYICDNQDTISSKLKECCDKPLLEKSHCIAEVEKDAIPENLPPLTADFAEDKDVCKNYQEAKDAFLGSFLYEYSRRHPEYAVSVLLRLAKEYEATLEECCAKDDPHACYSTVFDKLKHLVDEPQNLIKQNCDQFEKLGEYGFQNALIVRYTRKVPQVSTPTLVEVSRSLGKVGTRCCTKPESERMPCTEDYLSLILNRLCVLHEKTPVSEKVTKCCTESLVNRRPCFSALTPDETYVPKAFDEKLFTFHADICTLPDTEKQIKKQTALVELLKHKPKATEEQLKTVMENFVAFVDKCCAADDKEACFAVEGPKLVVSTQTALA

[1] = target: SARS-CoV-2 spike on pseudovirus (SARS-CoV-2, UniProt P0DTC2 14-1273); test: cell-based or functional assay

Binder | OD450 (SARS-CoV-2 S trimer) | OD450 (SARS-CoV-2 S1) | binding result (SARS-CoV-2 RBD) | other results
NCI-CoV-7C4 (VHH) VHH: EVQLVESGGGLVQPGGSLRLSCTASGFTFSSYDMSWVRQAPGKGLEWVSGINSGGNKIYYADSVKGRFTISRDNAKNTLYLQMSSLKSEDTALYYCAIGRLYSVKGQGTQVTVSS | 0.76 | 0.52 |  | 
NCI-CoV-2A10 (VHH) VHH: QVQLVESGGGSVQAGGSLRLSCAMSGLRVSNRCMGWFRQAPGKEREGVATICIGDGSTAYADSVKGRFTISQDNAKTTVFLEMNSLKPEDTAMYSCARAVRATAATLDPGNFFYWGQGTQVTVSS |  |  | binds | 
NCI-CoV-2D4 (VHH) VHH: EVQLVESGGGSVQAGGSLRLSCAASAVTSNTNYVGWLRQVPGKEREGVAGIYYDGGVYYDESVKGRFTISRDNAQNTVFLQMNSLKPEDTAMYYCGAGRGYRYQYGSAWYKPGQYHYWGQGTQVTVSS | 0.58 |  |  | 
NCI-CoV-2F7 (VHH) VHH: QVKLEESGGGSVQSGGSLRLSCTVSRDTNTNINRCMGWFRQAPGKGLETVATINRDGTNTYYTDAVKGRFTISQDNVKNTVYLQMNNLTPEDTGTYICNAMGRGSGSRCDNWDPNYWGQGTQVTVSS | 0.8 |  |  | 
NCI-CoV-7A3 (VHH) VHH: QVQLVESGGGSVQPGGSLRLSCVVSGYTSSSRYMGWFRQVPGKGLEWVSGIKRDGTNTYYADSVKGRFTISQDNAKNTVYLQMNSLKPEDTAMYYCAAGSWYNQWGYSMDYWGKGTQVTVSS | 0.59 | 0.54 |  | 
NCI-CoV-1H6 (VHH) VHH: AVQLVDSGGGSVQAGGSLNLSCVASGTTLRNGCMAWFRQVPGKEREVVAIIIRATSYTDYADSVKGRFTISQDNAKNTVYLQMKSLTPEDTATYYCAATLYRVNCAKREFDKWGQGTQVTVSS | 0.72 | 0.82 |  | 
NCI-CoV-8E1 (VHH) VHH: EVQLVESGGGSVQAGGSLRLSCAASGFTFSSYYMSWVRQAPGKGLEWVSGIYSDGSTYYGDSVKGRFTISRDNAKNTLYLQMNSLKSEDTALYYCAIGTGTTRQGQGTQVTVSS | 0.58 | 0.51 |  | 
NCI-CoV-1H8 (VHH) VHH: QVQLVESGGGLVQPGGSLRLSCAASGFTFSSYDMTWVRQAPGKGLEWVAAIYTADGSTYLDDSVKGRFTISQDNAKKTLYLQMTSLKVEDTAKYTCATGVGGSFSNWGRGTQVTVSS |  |  | binds | 
NCI-CoV-3E5 (VHH) VHH: EVQLVESGGGLVQPGGSLRLSCAASGFAFSSTRMHWVRQAPGVGLEWVSFIDRTDGGIISYADSVRGRFTISRDNAKNTVYLQMDRLNAEDTAVYYCLKEGPYLDYWDAWGQGTQVTVSS |  |  | binds | 
NCI-CoV-8A1 (VHH) VHH: QVQLVESGGGSVQAGGSLRLSCAASGFTFSSYFMTWVRQAPGKGLEWVSTINSDGSNTYYADSVKGRFTISRDNAKNTLYLQMNSLKPEDTAMYYCNFRRMIGTSNLNYWGQGTQVTVSS |  |  | binds | 
NCI-CoV-7E5 (VHH) VHH: AVQLVESGGGSVQAGGSLRLSCAASGYTYSSNYMGWFRQAPGKELEWVSGIYSDGRTYYGDSVKGRFTISRDNAKNTVYLQMNSLKPEDTAMYYCAAGSWYNQWGYSMDYWGKGTQVTVSS | 0.6 |  |  | 
NCI-CoV-8G12 (VHH) VHH: AVQLVDSGGGSVQAGGSLRLSCAASGYTSNMNHMGWFRQAPGKGLEWVSGIYSDGSTYYGDSVKGRFTISRDNAKNMLYLQMNNLKPEDTAVYYCSGDGGGIGYNYWGQGTQVTVSS | 0.6 | 0.62 |  | 
1A7 VHH-hFc (Fc fusion, also called NCI-CoV-1A7 VHH-hFc fusion protein) QVQLVESGGGLVQPGGSLRLSCVASGFTFSSVDMSWVRQDPRKGLEWVSGINSGGGSTSYADSVKGQFTISRDNAKNTLYLEMNNLKPEDTAVYYCATGLAASGVWGQGTQVTVSS |  |  |  | binding result (BSA): no binding (tested: 1 µg/ml); IC50, SARS-CoV-2 spike pseudovirus neutralization, repeated assay (FIGS. 9A-9F) [1]: 428 nM
NCI-CoV-1A7 (VHH) VHH: QVQLVESGGGLVQPGGSLRLSCVASGFTFSSVDMSWVRQDPRKGLEWVSGINSGGGSTSYADSVKGQFTISRDNAKNTLYLEMNNLKPEDTAVYYCATGLAASGVWGQGTQVTVSS | 0.67 |  |  | 
NCI-CoV-8A2 (VHH) VHH: AVQLVDSGGGSVQAGGSLRLSCAASGYTYSICTMGWYRQAPGEGLEWVSGINADGSNTHYTDSVKGRFTISRDNAKKTLYLQMNSLKPEDTAIYYCAAHGTYDKYAPCGGFAGTYTYWGQGTQVTVSS | 0.61 |  |  | 
NCI-CoV-1G11 (VHH) VHH: QVQLVESGGGSVQAGGSLRLSCVASGDTNTRQYMGWFRQAPGKEREGVAVVHSDSGGTYYADSVKERFIIAQDNAKNTVYLTMNSLKVEDTAIYYCAAKTLEKPHFSVFSAASYDYWGQGTQVTVSS |  | 0.68 |  | 
NCI-CoV-1A10 (VHH) VHH: AVQLVDSGGGSVQAGGSLRLSCAASGFTGSNYCLGWFRQAPGKEREGVAVIERDTGGTTYPNSLEGRFTIAQDNAKNMVYLHMRNLQPEDTGTYTCAAARNGDSFGGFTFWGQGTQVTVSS | 0.63 | 0.84 |  | 
NCI-CoV-1D7 (VHH) VHH: QVKLEESGGGLVQPGGSLKLSCTASGFTFSSYNMSWVRQAPGKGLKWVSMIRSDGSNTYYLDSVKGRFTISRDNAKNTVYLQMNSLEPGDTAVYYCVAGRHATYWGQGTQVTVSS |  |  | binds | 
NCI-CoV-2F5 (VHH) VHH: QVQLVESGGGLVQPGGSLKLSCTASGFTFSSYNMSWVRQAPGKGLKWVSMIRSDGSNTYYLDSVKGRFTISRDNAKNTVYLQMNSLEPGDTAVYYCVAGRHATYWGQGTQVTVSS |  |  | binds | 
NCI-CoV-4C6 (VHH) VHH: QVQLVESGGGSVQAGESLRLSCAVSGISSSTHYMAWFRQLPGKEREGLANIYTPAKVSLYANDVKGRFTISQDVTKNTVYLQMNSLKPEDTAMYYCAARRNAVCNAGSPLDFEFSYWGQGTQVTVSS |  |  | binds | 
NCI-CoV-2B3 (VHH) VHH: DVQLVESGGSSVQAGGSLRLSCAASGDSYRGNLMGWFRQAPGKAREGVAVIFTPNHNTYAADSVKGRFTISQDKAKNMVYLQMNSLKPEDTAMYYCATGWEGGLILSARAYRYWGQGTQVTVSS |  |  | binds | 
NCI-CoV-8B6 (VHH) VHH: AVQLVDSGGGSVQAGGSLRLSCAASGITYSTNCMGWFRQAPGKGLEWVSGINSDGRNTYYADSVKGRFTISQDNAKNTVYLQMNSLKPEDTAMYYCAAGSWYNQWGYSMDYWGQGTQVTVSS |  | 0.88 | binds | 
NCI-CoV-1B5 (VHH) VHH: DVQLVESGGGSVQAGGSLRLSCTGSRYTYSTYCMGWFRQAPGKEEEAVAIINSGGGEPYYGDSVKGRFTISQDRAKNTVYLQMDGLQPDDTAIYYCVAADSHNSRCYLGRSYVNYWGQGTQVTVSS | 0.67 |  |  | 
